Patent EP4345113A1 (SDS Optic Spolka Akcyjna, dated 2024)
Blank lines part the entries; values can stand above or below the binder they belong to.

Columns and labels:
[1] = target: T1, recombinant HER2 ECD domain (human, UniProt P04626 23-652); assay: Western blot
T1 construct: extracellular domain; also called extracellular domain of HER2

[2] = target: T2, human epidermal growth factor receptor 2 (HER2), native, in SK-BR-3 and SK-OV-3 cells and cell lysates (human, UniProt P04626 23-1255); assay: immunofluorescence on fixed cells
T2 construct: whole, on cells; Detected in denatured cell lysates (Western blot) and in fixed cells (immunofluorescence); also called HER2 antigen; HER2 protein

[3] = target: HER2 antigen (as used in the ELISA binding assays and on the optoelectronic biosensors) (human) (UniProt P04626); assay: in vitro antigen binding curve (ELISA), half of the effective dose
[4] = target: HER2 antigen (as used in the ELISA binding assays and on the optoelectronic biosensors) (human) (UniProt P04626); assay: direct ELISA, lot SDS-20211201 after 430 days at -80°C; amount of antibody that binds half of the available antigen
[5] = target: HER2 antigen (as used in the ELISA binding assays and on the optoelectronic biosensors) (human) (UniProt P04626); assay: direct ELISA, lot SDS-20211231 after 352 days at -80°C; amount of antibody that binds half of the available antigen
[6] = target: HER2 antigen (as used in the ELISA binding assays and on the optoelectronic biosensors) (human) (UniProt P04626); assay: direct ELISA, lot SDS-20220120 after 341 days at -80°C; amount of antibody that binds half of the available antigen
[7] = target: HER2 antigen (as used in the ELISA binding assays and on the optoelectronic biosensors) (human) (UniProt P04626); assay: direct ELISA, lot SDS-20220126 after 340 days at -80°C; amount of antibody that binds half of the available antigen

binding result [1]: binds
binding result [2]: binds
ED50 [3]: 92.2 pM
B1: mAb anti-human-HER2/70.27.58 - clone 58 (antibody, V domains shown)
VH: EVQLQQSGPELEKPGASVKISCKASGYSFTGYNMNWVKQSNGKSLEWIGTIDPNYGTSYNQKFKGKATLTVDKSSSTAYMHLKSLTSEDSSVYYCARRKVNYEAWFAFWGQGTLVTVSA
VL: DIVLTQSPASLAVSLGQRATISCRASESVDSYGNSFMHWYQQKPGQPPKLLIYRASNLESGIPARFSGSGSRTDFTLTINPVEADDVATYYCQQSNEDPFTFGSGTKLEIKR
notes: also called mAb anti-human-HER2/clone 58; anti-HER2/70.27.58

binding result [1]: binds
binding result [2]: binds
ED50 [3]: 235 pM
ED50 [4]: 0.0046 µg
ED50 [5]: 0.0043 µg
ED50 [6]: 0.004 µg
ED50 [7]: 0.0043 µg
B2: mAb anti-human-HER2/70.21.73.67 - clone 67 (antibody, V domains shown)
VH: EIQLQQSGPELVKPGASVRVSCKASGYSFTDYNMYWVRQSQGESLEWIGYIDHYNGNTGYNQKFRDKATLTVDKASSTAFMHLNSLTSEDSAVYYCARHYDYGAMDYWGQGTSVTVSS
VL: DIVMTQSQKFMSTSVGDRVSVTCKASQNVGTNVAWYQQKPGQSPKALIYSASYRYSGVPDRFTGSGSGTDFTLTISTVQSEDLAEYFCQHYYIYPLTFGAGTKLELKR
notes: Used as a biotin complex in the sandwich ELISA; No cleavage site is stated; also called mAb anti-human-HER2/clone 67; anti-HER2/70.21.73.67
